Patent publication US20250270304A1

T1: Activin B (Homo sapiens (Human)) (UniProt P09529)
T1 sequence: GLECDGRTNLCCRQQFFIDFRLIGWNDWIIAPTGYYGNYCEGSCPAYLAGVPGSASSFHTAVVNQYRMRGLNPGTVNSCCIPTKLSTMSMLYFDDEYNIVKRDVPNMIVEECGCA

T2: Inhibin A (Homo sapiens (Human)) (UniProt P05111)
T2 sequence 1: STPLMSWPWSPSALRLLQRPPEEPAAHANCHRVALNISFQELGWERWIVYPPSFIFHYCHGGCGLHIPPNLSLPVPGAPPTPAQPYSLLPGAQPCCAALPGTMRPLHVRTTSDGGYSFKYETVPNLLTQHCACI
T2 sequence 2: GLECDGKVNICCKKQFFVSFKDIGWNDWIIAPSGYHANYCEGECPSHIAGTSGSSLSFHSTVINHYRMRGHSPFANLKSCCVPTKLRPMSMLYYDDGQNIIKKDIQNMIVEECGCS


Experiments:
Test in all cases: ELISA, coated antigen, OD450
Mature Activin A (human) = Mature Activin A (human) (UniProt P08476)
[1] = biological target: T1, Activin B (Homo sapiens (Human))
[2] = biological target: T2, Inhibin A (Homo sapiens (Human))

| fold-change of OD 450 over negative control (BSA) (Mature Activin A (human)) | fold-change of OD 450 over negative control (BSA) [1] | fold-change of OD 450 over negative control (BSA) [2] | Binder |
| --- | --- | --- | --- |
| 1.39 fold |  |  | AB330 (antibody, IgG1, V domains shown) VH: QVQLVQSGAEVKKPGASVKVSCKVSGYPSPATISWVRQAPGKGLEWMGWMNPKSGYTNYAQKFQGRVTMTEDTSTDTAYMELSSLKSEDTAVYYCATLHGSGLAFDIWGQGTMVTVSS VL: DIQMTQSPSSVSASVGDRVTITCRASQDIKSDLAWYQQKPGKAPKLLIYRASARESGVPSRFSGSGSGTDFTLTISSLQPEDFANYYCQQYRSFPWSFGGGTKVEIK |
|  | 1.17 fold | 1.38 fold | AB439 (antibody, IgG1, V domains shown) VH: EVQLVQSGAEVKKPGASVKVSCKASGYTYTGYRISWVRQAPGQGLEWMGWIDPKSGRTNYAQKLQGRGTMTTDPSTSTAYMELRSLRSDDTAVYYCAREVKQWLVPGRGVYWFDPWGQGTLVTVSS VL: ESALTQPASVSGSPGQSITISCTGTNIGLRSVSWYQQHPGKAPKLMIYDTNIRSSGVSNRFSGSKSGNTASLTISGLQAEDEADYYCSSYTSSSTDVFGGGTKLTVL |
